# Experimental data as given in publication PMC7360590, “Structural basis of SALM3 dimerization and synaptic adhesion complex formation with PTPσ” (Scientific Reports, 2020).
# Residue numbers refer to the chain shown, from its start. In names and notes the source's numbering stands.
# T1: mouse SALM3 LRR-Ig-Fn (residues 17–510), wild type, displayed on HEK293T cells (mouse, UniProt Q80XU8 17-510)
# T1 construct: SALM3 (LRFN4), mouse, extracellular LRR-Ig-Fn, residues 17-510; also called WT SALM3; SALM3-pDisplay; source: HEK293T, transfected (pDisplay), on the cell surface; not shown: HA, N-terminal, kept; transmembrane domain (from the vector pDisplay), C-terminal, kept
# T1 sequence (looked up): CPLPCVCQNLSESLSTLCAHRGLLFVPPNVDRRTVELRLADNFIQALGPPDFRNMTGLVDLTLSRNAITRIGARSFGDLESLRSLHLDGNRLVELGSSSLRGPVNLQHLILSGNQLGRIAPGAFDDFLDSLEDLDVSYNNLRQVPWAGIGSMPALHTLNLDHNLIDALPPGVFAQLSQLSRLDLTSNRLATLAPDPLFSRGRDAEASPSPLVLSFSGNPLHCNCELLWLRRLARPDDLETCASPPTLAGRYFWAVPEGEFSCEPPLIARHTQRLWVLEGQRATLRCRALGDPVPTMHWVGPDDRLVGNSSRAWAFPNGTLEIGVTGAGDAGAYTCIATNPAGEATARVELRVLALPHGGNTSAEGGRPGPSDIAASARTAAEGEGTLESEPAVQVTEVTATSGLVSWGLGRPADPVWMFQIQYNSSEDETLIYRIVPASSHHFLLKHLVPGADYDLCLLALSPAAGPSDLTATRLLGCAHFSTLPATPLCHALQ
# T2: PTPσ-Fc fusion protein, B0V2N1
# T2 chain: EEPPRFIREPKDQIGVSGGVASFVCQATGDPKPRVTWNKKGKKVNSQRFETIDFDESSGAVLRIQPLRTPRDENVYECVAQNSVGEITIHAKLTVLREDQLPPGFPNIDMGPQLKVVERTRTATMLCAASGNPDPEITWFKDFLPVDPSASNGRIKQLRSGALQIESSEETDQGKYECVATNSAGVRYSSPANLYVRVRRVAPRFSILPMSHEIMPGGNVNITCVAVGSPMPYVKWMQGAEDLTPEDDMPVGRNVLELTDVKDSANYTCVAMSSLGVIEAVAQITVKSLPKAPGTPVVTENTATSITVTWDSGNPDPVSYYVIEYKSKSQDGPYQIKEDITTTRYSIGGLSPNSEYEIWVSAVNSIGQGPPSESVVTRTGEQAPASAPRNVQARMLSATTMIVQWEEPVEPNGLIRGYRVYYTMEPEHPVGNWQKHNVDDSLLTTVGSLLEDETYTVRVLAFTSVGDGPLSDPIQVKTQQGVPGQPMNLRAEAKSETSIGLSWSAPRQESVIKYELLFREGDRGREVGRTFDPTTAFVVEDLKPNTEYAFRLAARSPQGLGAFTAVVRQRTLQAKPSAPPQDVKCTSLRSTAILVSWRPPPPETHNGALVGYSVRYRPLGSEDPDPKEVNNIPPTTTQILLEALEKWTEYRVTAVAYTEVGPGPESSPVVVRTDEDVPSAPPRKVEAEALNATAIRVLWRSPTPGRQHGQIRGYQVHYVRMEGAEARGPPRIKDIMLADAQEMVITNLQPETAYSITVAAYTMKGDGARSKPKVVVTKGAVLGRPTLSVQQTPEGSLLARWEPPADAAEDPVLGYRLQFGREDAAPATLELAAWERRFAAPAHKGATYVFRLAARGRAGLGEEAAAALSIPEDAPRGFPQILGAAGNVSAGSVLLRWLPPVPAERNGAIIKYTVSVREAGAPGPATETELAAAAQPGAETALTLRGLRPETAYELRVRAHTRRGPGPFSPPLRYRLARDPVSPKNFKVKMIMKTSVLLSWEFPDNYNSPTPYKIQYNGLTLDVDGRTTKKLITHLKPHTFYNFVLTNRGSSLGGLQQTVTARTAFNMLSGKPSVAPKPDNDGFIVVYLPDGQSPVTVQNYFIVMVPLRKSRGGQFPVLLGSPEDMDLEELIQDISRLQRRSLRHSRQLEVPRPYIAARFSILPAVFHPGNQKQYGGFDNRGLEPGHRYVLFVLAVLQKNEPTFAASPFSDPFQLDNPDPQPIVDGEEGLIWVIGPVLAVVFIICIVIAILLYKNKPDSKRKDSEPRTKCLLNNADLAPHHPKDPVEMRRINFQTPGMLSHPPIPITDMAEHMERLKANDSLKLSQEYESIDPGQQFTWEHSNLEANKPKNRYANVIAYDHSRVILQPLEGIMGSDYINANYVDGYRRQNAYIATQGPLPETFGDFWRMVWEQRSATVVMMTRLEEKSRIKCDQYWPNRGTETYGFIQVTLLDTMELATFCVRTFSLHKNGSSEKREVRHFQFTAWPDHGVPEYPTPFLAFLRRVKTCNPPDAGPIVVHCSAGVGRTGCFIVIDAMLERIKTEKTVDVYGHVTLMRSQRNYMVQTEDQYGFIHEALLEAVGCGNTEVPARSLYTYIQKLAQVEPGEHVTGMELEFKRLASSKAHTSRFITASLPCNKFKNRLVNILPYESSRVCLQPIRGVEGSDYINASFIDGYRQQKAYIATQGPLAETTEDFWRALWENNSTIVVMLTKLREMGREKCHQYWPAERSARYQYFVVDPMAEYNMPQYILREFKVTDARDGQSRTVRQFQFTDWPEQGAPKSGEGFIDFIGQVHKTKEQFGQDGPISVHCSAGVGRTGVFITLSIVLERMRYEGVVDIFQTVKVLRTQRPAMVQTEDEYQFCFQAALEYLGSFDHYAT
# B1: mouse PTPσ Ig1-3-meB+ (residues 33–331) (domain or fragment, UniProt B0V2N1 33-331, looked up)
# chain: PRFIREPKDQIGVSGGVASFVCQATGDPKPRVTWNKKGKKVNSQRFETIDFDESSGAVLRIQPLRTPRDENVYECVAQNSVGEITIHAKLTVLREDQLPPGFPNIDMGPQLKVVERTRTATMLCAASGNPDPEITWFKDFLPVDPSASNGRIKQLRSGALQIESSEETDQGKYECVATNSAGVRYSSPANLYVRVRRVAPRFSILPMSHEIMPGGNVNITCVAVGSPMPYVKWMQGAEDLTPEDDMPVGRNVLELTDVKDSANYTCVAMSSLGVIEAVAQITVKSLPKAPGTPVVTENT
# notes: Receptor protein tyrosine phosphatase sigma (PTPσ), mouse, Ig1-Ig3 domains, splice form with mini-exon B (meB+), residues 33-331; The meB+ splice form is meant; also called PTPσ_(Ig1-Ig3); PTPσ Ig1-Ig3; source: purified
# B2: SALM3 LRR-Ig (residues 17–367) (domain or fragment, mouse, UniProt Q80XU8 17-367, looked up)
# chain: CPLPCVCQNLSESLSTLCAHRGLLFVPPNVDRRTVELRLADNFIQALGPPDFRNMTGLVDLTLSRNAITRIGARSFGDLESLRSLHLDGNRLVELGSSSLRGPVNLQHLILSGNQLGRIAPGAFDDFLDSLEDLDVSYNNLRQVPWAGIGSMPALHTLNLDHNLIDALPPGVFAQLSQLSRLDLTSNRLATLAPDPLFSRGRDAEASPSPLVLSFSGNPLHCNCELLWLRRLARPDDLETCASPPTLAGRYFWAVPEGEFSCEPPLIARHTQRLWVLEGQRATLRCRALGDPVPTMHWVGPDDRLVGNSSRAWAFPNGTLEIGVTGAGDAGAYTCIATNPAGEATARVELR
# notes: SALM3 (LRFN4), mouse, LRR and Ig domains, residues 17-367; also called SALM3 LRR-Ig construct; source: purified
# B3: Mouse SALM3 LRR (residues 17–284) (domain or fragment, UniProt Q80XU8 17-284, looked up)
# chain: CPLPCVCQNLSESLSTLCAHRGLLFVPPNVDRRTVELRLADNFIQALGPPDFRNMTGLVDLTLSRNAITRIGARSFGDLESLRSLHLDGNRLVELGSSSLRGPVNLQHLILSGNQLGRIAPGAFDDFLDSLEDLDVSYNNLRQVPWAGIGSMPALHTLNLDHNLIDALPPGVFAQLSQLSRLDLTSNRLATLAPDPLFSRGRDAEASPSPLVLSFSGNPLHCNCELLWLRRLARPDDLETCASPPTLAGRYFWAVPEGEFSCEPPLIA
# modifications: N-glycan at Asn25 (partly visible in one monomer)
# notes: SALM3 (LRFN4), mouse, LRR domain, residues 17-284; residues of the Prescission site may remain at the C-terminus after cleavage; also called SALM3 LRR domain; SALM3 LRR construct; not shown: Fc, C-terminal, cleaved
# B4: PTPσ-Fc fusion protein (Fc fusion)
# chain: PRFIREPKDQIGVSGGVASFVCQATGDPKPRVTWNKKGKKVNSQRFETIDFDESSGAVLRIQPLRTPRDENVYECVAQNSVGEITIHAKLTVLREDQLPPGFPNIDMGPQLKVVERTRTATMLCAASGNPDPEITWFKDFLPVDPSASNGRIKQLRSGALQIESSEETDQGKYECVATNSAGVRYSSPANLYVRVRRVAPRFSILPMSHEIMPGGNVNITCVAVGSPMPYVKWMQGAEDLTPEDDMPVGRNVLELTDVKDSANYTCVAMSSLGVIEAVAQITVKSLPKAPGTPVV
# B5: mouse SALM3 LRR-Ig-Fn (residues 17–510), wild type, displayed on HEK293T cells, Q80XU8 L282R; R285A (protein)
# chain: T1 sequence (looked up) with L266R, R269A
# B6: mouse SALM3 LRR-Ig-Fn (residues 17–510), wild type, displayed on HEK293T cells, Q80XU8 R285A; L305A (protein)
# chain: T1 sequence (looked up) with R269A, L289A
# B7: mouse SALM3 LRR-Ig-Fn (residues 17–510), wild type, displayed on HEK293T cells, Q80XU8 L321A; H313A (protein)
# chain: T1 sequence (looked up) with H297A, L305A
# B8: mouse SALM3 LRR-Ig-Fn (residues 17–510), wild type, displayed on HEK293T cells, Q80XU8 R107S; Q131A (protein)
# chain: T1 sequence (looked up) with R91S, Q115A
# B9: mouse SALM3 LRR-Ig-Fn (residues 17–510), wild type, displayed on HEK293T cells, Q80XU8 R247A (protein)
# chain: T1 sequence (looked up) with R231A
# Tests used:
# [1] = target: purified SALM3 Leu282Arg-Arg285Ala mutant protein (mouse); experiment: not stated; oligomeric state in solution of purified SALM3 double mutants against the wild type (Supplementary Fig. S8)
# [2] = target: purified SALM3 Thr354Arg-Glu359Ala mutant protein (mouse); experiment: as above
# [3] = target: B2; experiment: SEC-SAXS; SALM3 LRR-Ig (60 µM) and PTPσ (80 µM) mixed, 1 h at 4 °C; Superdex 200 PC 3.2/30, 30 mM Tris HCl pH 7.5, 150 mM NaCl, 4 °C; rigid body (CORAL) and ab initio (DAMMIN) modelling; conditions: both partners purified
# [4] = target: the molecule itself; experiment: SEC-MALS; SEC–MALLS; Superdex 75 10/300, 0.5 ml/min, 20 mM Tris pH 7.4, 150 mM NaCl; 100 µL injected at 1.5 mg/ml (conditions told for the LRR construct)
# [5] = target: T1, mouse SALM3 LRR-Ig-Fn (residues …); experiment: in-cell Western (cell-based binding assay); apparent; concentration series of soluble PTPσ-Fc (1–250 nM) on SALM3-transfected HEK293T cells in 96-well plates, EGB buffer with 1% BSA, overnight at 4 °C; detected with anti-human IgG IRDye 800CW; conditions: one partner purified
# [6] = target: T2, PTPσ-Fc fusion protein, B0V2N1; experiment: in-cell western cell binding assay; conditions: chain shown with the change; 150 nM PTPσ-Fc; SALM3 expressed on the surface of HEK293T cells; parent: est. 49000; read off a plot
molecule,measurement,setting,value
purified SALM3 Leu282Arg-Arg285Ala mutant protein (domain or fragment),stoichiometry N,[1],2
purified SALM3 Thr354Arg-Glu359Ala mutant protein (domain or fragment),stoichiometry N,[2],2
B1,stoichiometry N,[3],1 PTPσ per SALM3 (2:2 complex)
B2,stoichiometry N,[4],2
B3,stoichiometry N,[4],2
B4,Kd,[5],22.3 ± 5 nM
B5,response,[6],2500
B6,response,[6],4000
B7,response,[6],2800
B8,response,[6],2800
B9,response,[6],2500
